Paper PMC7018383
One block for each substance: values may come before it.

Target: β2B (UniProt Q08289)
Assay: flow-cytometric FRET 2-hybrid

Sequence of Rad (O88667 whole entry, looked up, change not shown): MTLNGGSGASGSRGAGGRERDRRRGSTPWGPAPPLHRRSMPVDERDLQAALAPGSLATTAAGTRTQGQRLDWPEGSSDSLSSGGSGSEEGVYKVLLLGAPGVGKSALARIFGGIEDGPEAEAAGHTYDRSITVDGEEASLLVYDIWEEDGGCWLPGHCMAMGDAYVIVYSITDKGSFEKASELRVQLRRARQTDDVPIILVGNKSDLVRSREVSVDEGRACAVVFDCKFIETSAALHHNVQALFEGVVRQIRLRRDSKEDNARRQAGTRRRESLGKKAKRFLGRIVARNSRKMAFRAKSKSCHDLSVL

other: Kd,EFF (FRET 2-hybrid, relative) (reference: WT Rad with PKAcat, sites S25,S38,S272,S300): stronger; reference 145231 ± 3084
Substance: Rad (from UniProt O88667) 4-SA Rad with PKAcat

other: Kd,EFF (FRET 2-hybrid, relative) (reference: 4-SA Rad, no PKAcat): same; reference 4346± 197
Substance: Rad (from UniProt O88667) 4-SA Rad, PKAcat co-expressed

other: Kd,EFF (FRET 2-hybrid, relative) (reference: WT Rad, no PKAcat, sites S25,S38,S272,S300): weaker; reference 7957 ± 418
Substance: Rad (from UniProt O88667) WT Rad, PKAcat co-expressed
